Residue numbers refer to the chain shown, from its start.

In assay [1] the target is T1, GDF11 (UniProt O95390 299-407).
T1 construct: Ligand used in the reporter gene and BiaCore assays; construct not described; also called Growth and Differentiation Factor-11; BMP11
T1 sequence (looked up): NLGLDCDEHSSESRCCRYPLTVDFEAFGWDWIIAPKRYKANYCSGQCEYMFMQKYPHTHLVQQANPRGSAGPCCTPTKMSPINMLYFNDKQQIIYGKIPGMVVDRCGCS
As to the kind of experiment: cell-based or functional assay.

Assay [2] deals with T2, Activin A (UniProt P08476 311-426).
T2 construct: also called ActA
T2 sequence (looked up): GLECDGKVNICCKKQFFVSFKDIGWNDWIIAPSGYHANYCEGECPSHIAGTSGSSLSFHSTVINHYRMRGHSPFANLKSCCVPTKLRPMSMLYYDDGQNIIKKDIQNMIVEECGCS
As to the kind of experiment: cell-based or functional assay.

Assay [3] deals with T1, GDF11. Kind of assay: BiaCore; ligand coupled to the device, receptor-Fc flowed over.
The target in assay [4] is T2, Activin A. Described as above.
Assay [5] has as its target T1, GDF11. Kind of assay: BiaCore; ligand coupled, receptor-Fc flowed over; legend: -- = <⅕ WT binding.

In assay [1], “ActRIIB-Fc A64 20-134 (from UniProt Q13705 20-134) (Fc fusion)” gave a KI, GDF11 Inhibition Activity (cell based assay) of 1000 nM. In assay [2], this molecule showed a KI, Activin Inhibition Activity (cell based assay) of 1000 nM.

B1: Soluble ActRIIB-Fc D54A (Fc fusion, UniProt Q13705 19-119, looked up)
chain: SGRGEAETRECIYYNANWELERTNQSGLERCEGEQAKRLHCYASWANSSGTIELVKKGCWLDDFNCYDRQECVATEENPQVYFCCCEGNFCNERFTHLPEA
notes: T0019 variant; whole entry named; not shown: Fc domain
Regarding B1, in assay [3], the binding result was “no binding”.

B2: Soluble ActRIIB-Fc D80K (Fc fusion, UniProt Q13705 19-119, looked up)
chain: B1 chain with A36D, D62K
notes: as for B1
With B2, the binding result in assay [3] and in assay [4] was “no binding” throughout.

B3: Soluble ActRIIB-Fc D80I (Fc fusion, UniProt Q13705 19-119, looked up)
chain: B1 chain with A36D, D62I
notes: as for B1
Consider B3, for which, in assay [4], the binding result is on record as “no binding”. The “binding relative to WT” value in assay [5] was less than 0.2 fold.

B4: Soluble ActRIIB-Fc D80G (Fc fusion, UniProt Q13705 19-119, looked up)
chain: B1 chain with A36D, D62G
notes: as for B1
Take B4: the binding result in assay [3] and in assay [4] was “no binding” each time.

B5: Soluble ActRIIB-Fc K74F (Fc fusion, UniProt Q13705 19-119, looked up)
chain: B1 chain with A36D, K56F
notes: as for B1
Consider B5, for which, in assay [4], the binding result is reported as “no binding”. Further, the “binding relative to WT” value in assay [5] was less than 0.2 fold.

B6: Soluble ActRIIB-Fc K74Y (Fc fusion, UniProt Q13705 19-119, looked up)
chain: B1 chain with A36D, K56Y
notes: as for B1
B6: the binding result in assay [4] is given as “no binding”. Further, the “binding relative to WT” value in assay [5] is less than 0.2 fold.

B7: Soluble ActRIIB-Fc R56A (Fc fusion, UniProt Q13705 19-119, looked up)
chain: B1 chain with A36D, R38A
notes: as for B1
For the molecule B7, the binding result in assay [3] and in assay [4] was “no binding” throughout.

B8: Soluble ActRIIB-Fc K74A (Fc fusion, UniProt Q13705 19-119, looked up)
chain: B1 chain with A36D, K56A
notes: as for B1
Turning to B8, the Kd in assay [3] amounted to 5.3 nM; in assay [4], 4.35 nM.

B9: Soluble ActRIIB-Fc E37A (Fc fusion, UniProt Q13705 19-119, looked up)
chain: B1 chain with E19A, A36D
notes: as for B1
As to B9, the binding result in assay [3] and in assay [4] was “no binding” in each case.

B10: Soluble ActRIIB-Fc W78A (Fc fusion, UniProt Q13705 19-119, looked up)
chain: B1 chain with A36D, W60A
notes: as for B1
For B10, the binding result in assay [3] and in assay [4] was “no binding” throughout.

B11: Soluble ActRIIB-Fc WT (64R) (Fc fusion, UniProt Q13705 19-119, looked up)
chain: B1 chain with A36D, A46R
notes: as for B1
As to B11, the Kd in assay [3] was determined as 86 nM.

B12: Soluble ActRIIB-Fc K55A (Fc fusion, UniProt Q13705 19-119, looked up)
chain: B1 chain with A36D, K37A
notes: as for B1
As for B12, the binding result in assay [3] is “no binding”.

B13: Soluble ActRIIB-Fc D80M (Fc fusion, UniProt Q13705 19-119, looked up)
chain: B1 chain with A36D, D62M
notes: as for B1
With B13, the binding result in assay [3] and in assay [4] was “no binding” in each case.

B14: Soluble ActRIIB-Fc D80R (Fc fusion, UniProt Q13705 19-119, looked up)
chain: B1 chain with A36D, D62R
notes: as for B1
For B14, the binding result in assay [3] and in assay [4] was “no binding” in each case.

B15: Soluble ActRIIB-Fc K74I (Fc fusion, UniProt Q13705 19-119, looked up)
chain: B1 chain with A36D, K56I
notes: as for B1
As for B15, the binding result in assay [4] is “no binding”. In assay [5], the “binding relative to WT” value is less than 0.2 fold.

B16: Soluble ActRIIB-Fc D80N (Fc fusion, UniProt Q13705 19-119, looked up)
chain: B1 chain with A36D, D62N
notes: as for B1
In the case of B16, the binding result in assay [3] and in assay [4] was “no binding” throughout.

B17: Soluble ActRIIB-Fc D80A (Fc fusion, UniProt Q13705 19-119, looked up)
chain: B1 chain with A36D, D62A
notes: as for B1
For B17, the binding result in assay [3] and in assay [4] was “no binding” in each case.

B18: Soluble ActRIIB-Fc D80F (Fc fusion, UniProt Q13705 19-119, looked up)
chain: B1 chain with A36D, D62F
notes: as for B1
Consider B18, for which the binding result in assay [3] and in assay [4] was “no binding” each time.

B19: Soluble ActRIIB-Fc L79A (Fc fusion, UniProt Q13705 19-119, looked up)
chain: B1 chain with A36D, L61A
notes: as for B1
As for B19, in assay [3], the binding result is reported as “no binding”.

Source of the values: US20130071393A1 (published 2013).
